Measured values taken from publication PMC3149649, “Evidence for a Two-Metal-Ion Mechanism in the Cytidyltransferase KdsB, an Enzyme Involved in Lipopolysaccharide Biosynthesis” (PLoS ONE, 2011).

Substrate: Nc1ccn([C@@H]2O[C@H](COP(=O)(O)OP(=O)(O)OP(=O)(O)O)[C@@H](O)[C@H]2O)c(=O)n1
Experiment: discontinuous CMP-Kdo formation assay (Ray et al.), non-linear Michaelis-Menten fit
Format: biochemical, Aquifex aeolicus
Conditions: co-substrate Kdo held constant (>5 x Km), 10 mM MgCl2 (typical mixture), 100 mM glycine-NaOH pH 9.0, 50°C

B1: AA-LCKS (LPS-specific CMP-Kdo synthetase, KdsB) (Aquifex aeolicus VF5) (protein)
chain: MRRAVIIPARLGSTRLKEKPLKNLLGKPLIRWVVEGLVKTGERVILATDSERVKEVVEDLCEVFLTPSDLPSGSDRVLYVVRDLDVDLIINYQGDEPFVYEEDIKLIFRELEKGERVVTLARKDKEAYERPEDVKVVLDREGYALYFSRSPIPYFRKNDTFYPLKHVGIYGFRKETLMEFGAMPPSKLEQIEGLEQLRLLENGIKIKVLITENYYHGVDTEEDLKIVEEKLKNL
notes: recombinant from plasmid pT7-kdsB in E. coli BL21-CodonPlus(DE3)-RIL; no tag mentioned; monomer 27 kDa, gel filtration 53 kDa, homodimer
Work on B1 yielded a Km of 160 ± 4 µM and a kcat of 9.5 ± 0.5 s⁻¹.
